The test addresses recombinant human PD-1 protein (human, UniProt Q15116 25-167). Put plainly: indirect ELISA, recombinant human PD-1 coated, HRP anti-human IgG (Fab specific), 4-parameter fit.

The text below walks through data of patent publication EP4692127A1 (Kangma-Healthcode (Shanghai) Biotech Co., Ltd, dated 2026).

Chain of recombinant human PD-1 protein (Q15116 25-167 limits assumed): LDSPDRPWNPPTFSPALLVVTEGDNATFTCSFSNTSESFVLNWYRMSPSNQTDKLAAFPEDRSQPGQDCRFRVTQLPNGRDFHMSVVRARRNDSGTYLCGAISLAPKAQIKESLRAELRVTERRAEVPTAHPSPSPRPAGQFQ

B1: Commercially available Tislelizumab (antibody, human IgG4 S228P, kappa)
heavy: QVQLQESGPGLVKPSETLSLTCTVSGFSLTSYGVHWIRQPPGKGLEWIGVIYADGSTNYNPSLKSRVTISKDTSKNQVSLKLSSVTAADTAVYYCARAYGNYWYIDVWGQGTTVTVSSASTKGPSVFPLAPCSRSTSESTAALGCLVKDYFPEPVTVSWNSGALTSGVHTFPAVLQSSGLYSLSSVVTVPSSSLGTKTYTCNVDHKPSNTKVDKRVESKYGPPCPPCPAPPVAGGPSVFLFPPKPKDTLMISRTPEVTCVVVAVSQEDPEVQFNWYVDGVEVHNAKTKPREEQFNSTYRVVSVLTVVHQDWLNGKEYKCKVSNKGLPSSIEKTISKAKGQPREPQVYTLPPSQEEMTKNQVSLTCLVKGFYPSDIAVEWESNGQPENNYKTTPPVLDSDGSFFLYSKLTVDKSRWQEGNVFSCSVMHEALHNHYTQKSLSLSLGK
light: DIVMTQSPDSLAVSLGERATINCKSSESVSNDVAWYQQKPGQPPKLLINYAFHRFTGVPDRFSGSGYGTDFTLTISSLQAEDVAVYYCHQAYSSPYTFGQGTKLEIKRTVAAPSVFIFPPSDEQLKSGTASVVCLLNNFYPREAKVQWKVDNALQSGNSQESVTEQDSKDSTYSLSSTLTLSKADYEKHKVYACEVTHQGLSSPVTKSFNRGEC
In general, EC50 refers to the concentration at which the effect is half-maximal. For B1, the EC50 was 0.0143 µg/mL.
